Measured values taken from patent US20200339692A1 (JIANGSU HENGRUI MEDICINE, published 2020).
Where a chain is given by its changes, count along the chain named.

B1: H21L67 (antibody, human IgG1, kappa, V domains shown)
VH: QVQLVQSGAEVKKPGASVKVSCKASGYTFTDKWMMWVRQAPGQGLEWMGRITPSSGFAMYNEKFKNRVTMTRDTSTSTVYMELSSLRSEDTAVYYCARGGSSYDYFDYWGQGTTVTVSS
VL: DIVLTQSPASLAVSPGQRATITCRASESVSIHGTHLMHWYQQKPGQPPKLLIYVASNVESGVPARFSGSGSGTDFTLTINPVEAEDTANYYCQQSFEDPLTFGQGTKLEIKR
notes: also called 24D5 H21 and 24D5 L67
B2: H21L69 (antibody, human IgG1, kappa, V domains shown)
VH: B1 VH
VL: B1 VL with E59Y
notes: also called 24D5 H21 and 24D5 L69
B3: H21L66 (antibody, human IgG1, kappa, V domains shown)
VH: B1 VH
VL: B1 VL with E59F
notes: also called 24D5 H21 and 24D5 L66
B4: H12L61 (antibody, human IgG1, kappa, V domains shown)
VH: B1 VH with D31S, K32Y, M35H
VL: B1 VL with V54A, V58L
notes: also called 24D5 H12 and 24D5 L61
B5: H14L61 (antibody, human IgG1, kappa, V domains shown)
VH: B1 VH with D31S, K32Y, M35H, T52H, S55L, F57L, A58P, M59L
VL: B1 VL with V54A, V58L
notes: also called 24D5 H14 and 24D5 L61
B6: H17L61 (antibody, human IgG1, kappa, V domains shown)
VH: B1 VH with D31S, K32Y, M35H, T52G, S54N, S55L, F57W, F64Y, R87G
VL: B1 VL with V54A, V58L
notes: also called 24D5 H17 and 24D5 L61
B7: H13L61 (antibody, human IgG1, kappa)
heavy: not shown
light: DIVLTQSPASLAVSPGQRATITCRASESVSIHGTHLMHWYQQKPGQPPKLLIYAASNLESGVPARFSGSGSGTDFTLTINPVEAEDTANYYCQQSFEDPLTFGQGTKLEIKRTVAAPSVFIFPPSDEQLKSGTASVVCLLNNFYPREAKVQWKVDNALQSGNSQESVTEQDSKDSTYSLSSTLTLSKADYEKHKVYACEVTHQGLSSPVTKSFNRGEC
notes: also called 24D5 H13 and 24D5 L61
B8: H16L61 (antibody, human IgG1, kappa)
heavy: not shown
light: B7 light
notes: also called 24D5 H16 and 24D5 L61
B9: H19L61 (antibody, human IgG1, kappa, V domains shown)
VH: B1 VH with D31S, K32Y, M35H, T52S, S54G, S55G, A58T, M59L
VL: B1 VL with V54A, V58L
notes: also called 24D5 H19 and 24D5 L61
B10: H15L61 (antibody, human IgG1, kappa, V domains shown)
VH: B1 VH with S25N
VL: B1 VL with V54A, V58L
notes: also called 24D5 H15 and 24D5 L61

The binders below were run against T1, human PD-L1 (Cat. #10084-H08H, Sino Biological) (human, UniProt Q9NZQ7 19-239) (assay: SPR, Biacore X100, 1:1 Langmuir).
T1 construct: Bought recombinant protein used in the Biacore test; also called hPDL1; hPD-L1
T1 sequence (Q9NZQ7 19-239 limits assumed): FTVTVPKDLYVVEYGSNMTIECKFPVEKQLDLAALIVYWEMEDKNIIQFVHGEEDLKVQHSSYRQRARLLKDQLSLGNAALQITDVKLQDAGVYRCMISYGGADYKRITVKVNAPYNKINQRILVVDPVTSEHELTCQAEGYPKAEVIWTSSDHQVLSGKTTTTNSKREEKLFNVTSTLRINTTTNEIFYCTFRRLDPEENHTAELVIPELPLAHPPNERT
Experimental: (§1) According to the method in the manual of human anti-capture kit (Cat. A BR-1008-39, GE), the human anti-capture antibody was covalently coupled to biosensor chip CM5 (Cat. #BR-1000-12, GE) so that a certain amount of human PD-L1 (Cat. #10084-H08H, Sino Biological) monkey PD-L1 (Cat. #90251-C08H, Sino Biological), mouse PD-L1 (Cat. #50010-M08H, Sino Biological) were affinity captured. The affinity of PD-L1 antibody reacting with PD-L1 was measured with Biacore X100, GE instrument.

Kd [nM] | koff [s⁻¹] | kon [M⁻¹ s⁻¹] | Binder
0.0522 | 0.00012 | 2.3e+06 | B1
0.0563 | 0.000129 | 2.29e+06 | B2
0.0533 | 0.000104 | 1.95e+06 | B3

The binders below were run against T2, monkey PD-L1 (Cat. #90251-C08H, Sino Biological) (monkey (cyno), UniProt G7PSE7 19-239) (assay: SPR, Biacore X100, 1:1 Langmuir).
T2 construct: Bought recombinant protein used in the Biacore test; also called Monkey (cyno) PD-L1; Cyno PDL1
T2 sequence (G7PSE7 entry or part of it C08H C08H): as the sequence (Q9NZQ7 19-239 limits assumed) above, with A33T, A34S, S62N, R68Q, Q82R, F173L, T185A, T192I, H215L counted along it
Experimental: as §1

Kd [nM] | koff [s⁻¹] | kon [M⁻¹ s⁻¹] | Binder
0.0528 | 0.000124 | 2.35e+06 | B1
0.0526 | 0.000119 | 2.27e+06 | B2
0.0563 | 0.000122 | 2.17e+06 | B3

Biological target: T1, human PD-L1 (Cat. #10084-H08H, Sino …)
Test: SPR, Biacore X100, 1:1 Langmuir
Remark: another data set of the same source
Experimental: as §1

Kd [nM] | koff [s⁻¹] | kon [M⁻¹ s⁻¹] | Binder
0.0326 | 7.1e-05 | 2.18e+06 | B4
0.038 | 9.1e-05 | 2.4e+06 | B5
0.0393 | 9.53e-05 | 2.43e+06 | B6
0.0261 | 6.66e-05 | 2.55e+06 | B7
0.0254 | 6.43e-05 | 2.53e+06 | B8
0.0327 | 7.65e-05 | 2.34e+06 | B9
0.0325 | 7.88e-05 | 2.43e+06 | B10
